Results on two molecules are retold here after US20230151111A1 (AKESO BIOPHARMA, published 2023).

For assay [1], the target named is T1, PD-1 on 293T-PD1 cell surface (human, UniProt Q15116 25-288).
T1 construct: whole, on cells
The assay can be described thus: flow cytometry, 293T-PD1 cells. As to the method: (§1) 500 μL of PBSA was added, and the mixture was centrifuged at 5600 rpm for 5 min to remove the supernatant. […] The system was mixed gently and uniformly, and then was incubated on ice for 1 h. Then 500 μL of PBSA was added, and the mixture was centrifuged at 5600 rpm for 5 min to remove the supernatant. […] 500 μL of PBSA was added, and the mixture was centrifuged at 5600 rpm for 5 min to remove the supernatant. At last, 200 μL of PBSA was added to resuspend cell precipitates, and the mixture was transferred to a flow tube for FACSCalibur detection.
For orientation: In flow cytometry, cells or beads pass a laser one at a time.

For assay [2], the target named is T2, CD73 on cell membrane surface (MDA-MB-231, U87-MG) (human, UniProt P21589 27-549).
T2 construct: whole, on cells; also called NT5E
T2 sequence (looked up): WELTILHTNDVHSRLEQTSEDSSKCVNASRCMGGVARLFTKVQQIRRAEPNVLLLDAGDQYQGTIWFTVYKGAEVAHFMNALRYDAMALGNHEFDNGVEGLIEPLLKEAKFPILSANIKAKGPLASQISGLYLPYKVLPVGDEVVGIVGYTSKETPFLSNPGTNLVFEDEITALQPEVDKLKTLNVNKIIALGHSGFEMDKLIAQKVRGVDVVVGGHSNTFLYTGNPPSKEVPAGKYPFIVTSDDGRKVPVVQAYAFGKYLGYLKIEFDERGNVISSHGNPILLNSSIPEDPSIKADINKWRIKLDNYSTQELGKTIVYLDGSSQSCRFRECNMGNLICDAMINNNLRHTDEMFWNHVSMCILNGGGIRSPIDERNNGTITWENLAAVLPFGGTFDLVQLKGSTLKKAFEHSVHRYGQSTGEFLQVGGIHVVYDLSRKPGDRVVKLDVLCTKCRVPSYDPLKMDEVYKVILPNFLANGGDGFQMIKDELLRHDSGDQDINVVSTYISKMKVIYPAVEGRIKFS
As to the kind of experiment: flow cytometry, MDA-MB-231 cells. As to the method: (§2) MDA-MB-231 cells in logarithmic phase were digested with conventional trypsin and transferred to a 1.5 mL centrifuge tube at 3×10⁵ cells/tube. 500 μL of PBSA was added, and the mixture was centrifuged at 5600 rpm for 5 min to remove the supernatant. […] The system was mixed gently and uniformly, and then was incubated on ice for 1 h. Then 500 μL of PBSA was added, and the mixture was centrifuged at 5600 rpm for 5 min to remove the supernatant. […] 500 μL of PBSA was added, and the mixture was centrifuged at 5600 rpm for 5 min to remove the supernatant. At last, 200 μL of PBSA was added to resuspend cell precipitates, and the mixture was transferred to a flow tube for FACSCalibur detection.

In assay [3] the target is T3, human NT5E-Biotin (human, UniProt P21589 27-552, limits assumed, biotin label, site not stated).
T3 construct: Captured on streptavidin-coated plates; also called human NTSE-Biotin
T3 sequence (looked up): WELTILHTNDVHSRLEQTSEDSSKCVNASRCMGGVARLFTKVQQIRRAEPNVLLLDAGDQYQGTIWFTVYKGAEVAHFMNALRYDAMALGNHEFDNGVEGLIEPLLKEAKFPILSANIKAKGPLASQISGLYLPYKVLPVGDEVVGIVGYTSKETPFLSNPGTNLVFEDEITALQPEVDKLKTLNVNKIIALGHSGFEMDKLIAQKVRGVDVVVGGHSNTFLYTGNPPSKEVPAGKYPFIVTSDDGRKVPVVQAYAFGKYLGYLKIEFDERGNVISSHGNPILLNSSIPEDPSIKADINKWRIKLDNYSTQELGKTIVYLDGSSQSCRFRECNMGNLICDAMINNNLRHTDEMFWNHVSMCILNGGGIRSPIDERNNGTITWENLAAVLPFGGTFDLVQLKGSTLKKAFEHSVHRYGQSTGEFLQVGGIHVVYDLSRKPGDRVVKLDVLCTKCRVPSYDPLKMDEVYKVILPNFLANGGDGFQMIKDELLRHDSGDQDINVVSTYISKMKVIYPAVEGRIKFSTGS
As to the kind of experiment: ELISA, NT5E-biotin on streptavidin. The protocol:
A microplate was coated with streptavidin at 2 μg/mL and then incubated at 4° C. overnight. After incubation, the microplate coated with streptavidin was washed once with PBST, and blocked with a PBS solution containing 1% BSA as a microplate blocking solution at 37° C. for 2 h. After blocking, the microplate was washed 3 times with PBST. Then, 0.5 μg/mL antigen human NTSE-Biotin was added and incubated at 37° C. for 30 min. Then, the plate was washed 3 times with PBST. The antibodies serially diluted with PBST solution (the dilution gradients for the antibody are shown in Table 3) were added to wells of the microplate. The microplate containing the test antibodies was incubated at 37° C. for 30 min, and then washed 3 times with PBST. […] After incubation, the plate was washed 4 times with PBST, TMB (Neogen, 308177) was added in the dark for chromogenesis for 5 min, and then a stop solution was added to terminate chromogenic reaction. The microplate was put into a microplate reader immediately, and the OD value of each well in the microplate was read at 450 nm. The data were analyzed and processed by SoftMax Pro 6.2.1.
On the technique in general: ELISA stands for enzyme-linked immunosorbent assay.

The target of assay [4] is T1, PD-1 on 293T-PD1 cell surface. The assay can be described thus: flow cytometry, 293T-PD1 cells; antibody 0.05 nM. As to the method:
as §1

For assay [5] the target is unchanged. As to the kind of experiment: flow cytometry, 293T-PD1 cells; antibody 1.23 nM. The protocol:
as §1

Assay [6] has the same target. The assay can be described thus: flow cytometry, 293T-PD1 cells; antibody 11.11 nM. As to the method:
as §1

For assay [7] the target is unchanged. The assay can be described thus: flow cytometry, 293T-PD1 cells; antibody 100.00 nM. The protocol:
as §1

The target of assay [8] is T2, CD73 on cell membrane surface …. The assay can be described thus: flow cytometry, MDA-MB-231 cells; antibody 0.41 nM. As to the method: as §2
Assay [9] shares this target. As to the kind of experiment: flow cytometry, MDA-MB-231 cells; antibody 3.70 nM. The protocol: as §2
Assay [10] has the same target. As to the kind of experiment: flow cytometry, MDA-MB-231 cells; antibody 100.00 nM. As to the method: as §2

T1 sequence (Q15116 25-288): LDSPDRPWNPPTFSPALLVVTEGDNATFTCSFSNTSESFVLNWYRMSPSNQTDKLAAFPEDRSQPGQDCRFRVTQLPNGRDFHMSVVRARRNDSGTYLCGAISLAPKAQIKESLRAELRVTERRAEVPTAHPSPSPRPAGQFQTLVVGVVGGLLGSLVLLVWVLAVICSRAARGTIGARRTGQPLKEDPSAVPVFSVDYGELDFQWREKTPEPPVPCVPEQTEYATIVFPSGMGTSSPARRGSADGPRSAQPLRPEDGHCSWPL

B1: P1D7V01 (bispecific antibody, human IgG1, kappa)
heavy: not shown
light: DIQMTQSPSSMSASVGDRVTFTCRASQDINTYLSWFQQKPGKSPKTLIYRANRLVSGVPSRFSGSGSGQDYTLTISSLQPEDMATYYCLQYDEFPLTFGAGTKLELKRTVAAPSVFIFPPSDEQLKSGTASVVCLLNNFYPREAKVQWKVDNALQSGNSQESVTEQDSKDSTYSLSSTLTLSKADYEKHKVYACEVTHQGLSSPVTKSFNRGEC
notes: Morrison form IgG-scFv
Usually EC50 stands for the concentration that produces a half-maximal response. Low values mean an effect from little substance, high ones a need for much substance. B1: the EC50 in [1] stood at 1 nM; in assay [2], 1.38 nM; in assay [3], 0.063 nM. Moreover, the FACS signal in assay [4] is 26.6; in assay [5], 307; in assay [6] it was 578; in [7] it was 531; in assay [8], 76.8; in assay [9] it was 572. This molecule came in with an FACS signal in [10] of 706.

B2: P1D7V03 (bispecific antibody, human IgG1, kappa)
heavy: not shown
light: B1 light
notes: Morrison form IgG-scFv
Consider B2, for which the EC50 stood at 1.38 nM in assay [1], 2.01 nM in [2] and 0.068 nM in assay [3]. The FACS signal in [4] stood at 24.1; in assay [5] it was 289; in [6], 459; in assay [7], 343; in assay [8] it was 106; in assay [9] it was 458. Moreover, in assay [10], the FACS signal is 678.
